The assay addresses β-PrP^23–231 (full-length recombinant mouse PrP residues 23–231 refolded to the β-sheet conformation) (mouse) (UniProt P04925). Description: AUC.

As for “β-PrP^23–231 (full-length recombinant mouse PrP residues 23–231 refolded to the β-sheet conformation) (from UniProt P04925 23-231) (natural protein)”, the percentage occupancy of sample (oligomer) was found to be 61% and the stoichiometry N (monomer subunits) worked out at 12.
